# Results from paper PMC3230590, “Structure of the Bro1 Domain Protein BROX and Functional Analyses of the ALIX Bro1 Domain in HIV-1 Budding” (PLoS ONE, 2011).
# T1: human BROX(1-401) (human, UniProt Q5VW32 1-401)
# T1 construct: BROX, human, residues 1-401; lacks the 10 C-terminal residues 402-411 with the farnesylated Cys408; Residues of the vector may remain after TEV cleavage (surmise); also called wild type BROX; recombinant human BROX; not shown: His6, N-terminal, cleaved
# T1 sequence (looked up): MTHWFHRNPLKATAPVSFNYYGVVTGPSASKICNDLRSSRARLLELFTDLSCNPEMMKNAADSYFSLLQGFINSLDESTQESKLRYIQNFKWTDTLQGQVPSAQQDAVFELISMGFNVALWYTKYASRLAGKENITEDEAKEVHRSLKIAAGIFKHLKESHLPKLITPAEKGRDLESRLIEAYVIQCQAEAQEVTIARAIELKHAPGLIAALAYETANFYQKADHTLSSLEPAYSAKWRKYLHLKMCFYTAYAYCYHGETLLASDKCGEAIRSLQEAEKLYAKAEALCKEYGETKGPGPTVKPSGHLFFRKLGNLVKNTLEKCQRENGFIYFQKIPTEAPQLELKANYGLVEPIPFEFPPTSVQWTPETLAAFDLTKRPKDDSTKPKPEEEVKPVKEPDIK
# B1: GST-CHMP4B(205-224) (domain or fragment, UniProt Q9H444 205-224, looked up)
# chain: KKKEEEDDDMKELENWAGSM
# notes: also called C-terminal fragment from CHMP4B; source: E. coli, captured from crude expression lysates on an anti-GST antibody sensor chip
# Assays:
# [1] = molecular target: CHMP4B 205-224 (Homo sapiens) (UniProt Q9H444); conditions: cited from earlier work
# human BROX(1-401) = molecular target: T1, human BROX(1-401); assay: SPR; Biacore 2000; CM5 chip with amine-coupled anti-GST antibody capturing GST-CHMP4B(205-224) or GST alone from crude E. coli lysates; pure BROX proteins injected in triplicate, 1.5-fold dilution series from 400 µM; equilibrium responses fit to 1:1 isotherms; conditions: both partners purified
Molecule,Kd [1] [µM],Kd (human BROX(1-401)) [µM]
ALIX Bro1 (from UniProt Q8WUM4),48,
B1,,98 ± 22
